Reference: EP4491631A1

target: cynomolgus PD-1 expressed on cells (cynomolgus monkey) (UniProt B0LAJ3); test: flow cytometry, CHO-S Cyno-PD-1
Sequence (B0LAJ3 entry or part of it limits assumed): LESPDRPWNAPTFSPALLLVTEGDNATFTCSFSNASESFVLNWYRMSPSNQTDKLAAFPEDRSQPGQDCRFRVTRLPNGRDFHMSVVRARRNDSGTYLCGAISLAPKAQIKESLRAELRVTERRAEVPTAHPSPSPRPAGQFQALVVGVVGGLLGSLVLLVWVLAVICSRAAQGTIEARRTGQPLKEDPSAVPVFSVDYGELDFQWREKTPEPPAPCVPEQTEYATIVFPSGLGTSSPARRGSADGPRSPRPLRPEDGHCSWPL

Row | Binder | Max MFI
1 | z2-XVT458 (antibody, IgG1, V domains shown) VH: QVQLVQSGAEVKKPGASVKVSCKASGYTFTNFYIHWVRQAPGQGLEWMGSIYPNYGDTAYNQKFKDRVTMTVDTSTSTAYMELRSLRSDDTAVYYCARGYSYAMDYWGQGTTVTVSS VL: DIQMTQSPSSVSASVGDRVTITCSASQGISGDLNWYQQKPGKAPKLLIYHTSSLHSGVPSRFSGSGSGTDFTLTISSLQPEDFATYYCQYYSKDLLTFGGGTKLEIK | 109 MFI
2 | XVT458-z2-m3 (antibody, V domains shown) VH: QVQLVQSGAEVKKPGASVKVSCKASGYTFTNFYIHWVRQAPGQGLEWMGRIYPNYGITAYNQKFKDRVTMTVDTSTSTAYMELRSLRSDDTAVYYCARGYSYAMDYWGQGTTVTVSS VL: DIQMTQSPSSVSASVGDRVTITCSASQGISGDLNWYQQKPGKAPKLLIYHTSQRHSDVPSRFSGSGSGTDFTLTISSLQPEDFATYYCQGYSKDLLTFGGGTKLEIK | 124 MFI
3 | XVT458-z2-m5 (antibody, V domains shown) VH: QVQLVQSGAEVKKPGASVKVSCKASGYTFTNFYIHWVRQAPGQGLEWMGRIYPNYGITAYNQKFKDRVTMTVDTSTSTAYMELRSLRSDDTAVYYCARGYSYAMDYWGQGTTVTVSS VL: DIQMTQSPSSVSASVGDRVTITCSASQGIYGDLNWYQQKPGKAPKLLIYHTSSRHSGVPSRFSGSGSGTDFTLTISSLQPEDFATYYCQAYSKDLLTFGGGTKLEIK | 335 MFI
4 | XVT458-z2-m1 (antibody, V domains shown) VH: QVQLVQSGAEVKKPGASVKVSCKASGYTFTNFYIHWVRQAPGQGLEWMGSIYPNYGFTAYNQKFKDRVTMTVDTSTSTAYMELRSLRSDDTAVYYCARGYSYAMDYWGQGTTVTVSS VL: DIQMTQSPSSVSASVGDRVTITCSASQGIWGDLNWYQQKPGKAPKLLIYHTSQLHSDVPSRFSGSGSGTDFTLTISSLQPEDFATYYCQGYSKDLLTFGGGTKLEIK | 70 MFI

Next, values leading:

Row | Max MFI | Binder
5 | 59 MFI | XVT458-z2-m6 (antibody, V domains shown) VH: QVQLVQSGAEVKKPGASVKVSCKASGYTFTNFYIHWVRQAPGQGLEWMGSIYPNYGITAYNQKFKDRVTMTVDTSTSTAYMELRSLRSDDTAVYYCARGYSYAMDYWGQGTTVTVSS VL: DIQMTQSPSSVSASVGDRVTITCSASQGISGDLNWYQQKPGKAPKLLIYHTSQLHSDVPSRFSGSGSGTDFTLTISSLQPEDFATYYCQGYSKDLLTFGGGTKLEIK
6 | 367 MFI | XVT458-z2-m2 (antibody, V domains shown) VH: QVQLVQSGAEVKKPGASVKVSCKASGYTFTNFYIHWVRQAPGQGLEWMGRIYPNYGFTAYNQKFKDRVTMTVDTSTSTAYMELRSLRSDDTAVYYCARGYSYAMDYWGQGTTVTVSS VL: DIQMTQSPSSVSASVGDRVTITCSASQGIYGDLNWYQQKPGKAPKLLIYHTSSLHSGVPSRFSGSGSGTDFTLTISSLQPEDFATYYCQAYSKDLLTFGGGTKLEIK
7 | 258 MFI | XVT458-z2-m4 (antibody, V domains shown) VH: QVQLVQSGAEVKKPGASVKVSCKASGYTFTNFYIHWVRQAPGQGLEWMGRIYPNYGITAYNQKFKDRVTMTVDTSTSTAYMELRSLRSDDTAVYYCARGYSYAMDYWGQGTTVTVSS VL: DIQMTQSPSSVSASVGDRVTITCSASQGISGDLNWYQQKPGKAPKLLIYHTSSRHSGVPSRFSGSGSGTDFTLTISSLQPEDFATYYCQGYSKDLLTFGGGTKLEIK
